{"source": "the RNAGym collection of RNA variant scans (doi:10.1073/pnas.2313332121)", "parents": {"B1": {"name": "TPR t1 (parent)", "chain": "GACCAAUCUGCCCUCAGAGCUCGAGAACAUCUUCGGAUGCAGAGGAGGCAGGCUUCGGUGGCGCGAUAGCGCCAACGUCCUCAACCUCCAAUGCAUCCCACCACAUGAUGAUGCCUGAAGAGCCUUGGUUUUUUG"}}, "data": [{"variants_of": "B1", "assay": "polymerase ribozyme fitness, log enrichment relative to wild type (log ratio); higher = more active; in vitro selection for triplet polymerase activity", "method_in_brief": "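Each subunit of a heterodimeric triplet polymerase ribozyme was mutagenized into a library by PCR, transcribed, and subjected to one round of in vitro selection, run in triplicate. Libraries were annealed with a biotinylated primer, the partner subunit and triplets, incubated frozen at −7 °C, and extended constructs were gel-excised, captured on streptavidin beads and recovered by RT-PCR. Input and output libraries were sequenced on Illumina, keeping genotypes with ≥10 input reads and ≥1 read per output. Fitness is log base 2 of genotype enrichment divided by wild-type enrichment, from inverse-variance-weighted replicate averages.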", "values": [{"variant": "GACCAAUCGGCCCUCAGAGCUCGAGAACAUCUUCGGAUGCAAAGGAGGCAGGGUUCGGUGGCGCGAUAGCGCCAACGUCCUCAACCUCCAAUGCAUCCCACCACAUGAUGAUGCCUGAAGAGCCUUGGUUUUUUG", "note": "[U9G G42A C53G]", "polymerase ribozyme fitness (log ratio)": -2.45}, {"variant": "GACCAAUCGGCCCUCAGAGCUCGAGAACAUCUUCGGAUGCAGAGGAGGCACGCUUGGGUGGUGCGAUAGCGCCAACGUCGUCAACCUCCAAUGCAUCCCACCACAUGAUGAUGCCUGAUGAGCCUUGGUUUUUUG", "note": "[U9G G51C C56G C62U C80G A119U]", "polymerase ribozyme fitness (log ratio)": -0.0854}, {"variant": "GACCAAUCGGCCCUCAGAGCUCGAGAACAUCUUCGGAUGCAUAGGAGGCAGGCUACGGUGGCGCGAUAGCGCCAACGUCCUCAACCUCCAAUGCAUCCCACCACAUGAUGAUGCCUGAAGAGCCUUGGUUUUUUG", "note": "[U9G G42U U55A]", "polymerase ribozyme fitness (log ratio)": -1.32}, {"variant": "GACCAAUCGGCCCUCAGAGCUCGAGAACAUCUUCGGAUGCAGAGGAGUCAGGCUUCGGUGGCGCGAUAGCGCCAACGUCCUCAACCGCCAAUGCAUCCCACCACAUGAUGAUGCGUGAAGAGCCUUGGUUUUUUG", "note": "[U9G G48U U87G C115G]", "polymerase ribozyme fitness (log ratio)": 0.077}, {"variant": "GACCAAUCGGCCCUCAGAGCUCGAGAACAUCUUCGGAUGCAGAGGAGGCAGGCUUCGGUGGCGCGAUAGCGCCAACGUCCUCAACCUCCAAUGCAUCCCACCAUAUGAUGAUGCCUGAAGAGCUUUGGUUUUUUG", "note": "[U9G C104U C124U]", "polymerase ribozyme fitness (log ratio)": 1.88}, {"variant": "GACCAAUCGGCCCUCAGAUCUCGAGAACAUCUUCGGAUGCAGAGGCGGCAGGCUUUGGUGGCGCGAUAGCGCCAACGUCCUCAACCUCCAAUGCAUCCCACCACAUGAUGAUGCCUGAAGAGCCUUGGUUUUUUG", "note": "[U9G G19U A46C C56U]", "polymerase ribozyme fitness (log ratio)": -3.13}, {"variant": "GACCAAUCGGCCCUCAGAGCUCGAGAACAUCUUCGGAUGCAGAGGAGGCAGGCUUCGGUGGCGCGAUAGCUCCAACGUCCUCAGCCUCGAAUGCAUCCCACCACAUGAUGAGGCCUGAAGAGCCUUGGUUUUUUG", "note": "[U9G G71U A84G C89G U112G]", "polymerase ribozyme fitness (log ratio)": -7.39}, {"variant": "GACCAAUCGGCCCUCAGAGCUCGAGAACAUCUUCGGAUGCAGAGGAGGCAGGCUUCGGUGGCGCGAUAGCGCCAACGUCCUCAACCUCCAAUGCAUCCUACCACAUGAUGAUGCCUGAAGAGCCUUGGUUUUUUG", "note": "[U9G C99U]", "polymerase ribozyme fitness (log ratio)": -2.87}, {"variant": "GACCAAUCGUCCCUCAGAGCUCGAGAACAUCUUCGGAUGCAGAGGAGGCAGGCUUCGGUGGCGCGAUAGCGCCAACGUCCUCAACCUCCAAUGCAUCCCACCAAAUGAUGAUGCCUGAAGAGCCUUGGUUUUUUG", "note": "[U9G G10U C104A]", "polymerase ribozyme fitness (log ratio)": -1.09}, {"variant": "GACCAAUCGGCCCUCAGAGCUCGAGAACAUCUUCGGAUGCAGAGGAGGCAGGCUUCAGUGGCGCGAUAGCGCCAACGUCCUCAACCUCCAAUGCAUCCCACCACAUGAUGAAGCCUGAAGAGUCUUGAUUUUUUG", "note": "[U9G G57A U112A C123U G128A]", "polymerase ribozyme fitness (log ratio)": -3.19}, {"variant": "GACCAAUCGGCCCUCAGAGCUCGAGAACAUCUUCGGAUGCAGAGUAGGCAGGCUUCGGUGGCGCGAUAGCGCCAACGUCCUCAACCUCCAAUGCAUCCCACCACAUGAUGAUGCCUGAAGAGCCUUGGUUUUUUG", "note": "[U9G G45U]", "polymerase ribozyme fitness (log ratio)": -0.0404}, {"variant": "GACCAAUCGGCCCUCAGAGCUCGAGAACAUCUUCGGAUACAGAGGAGGCAGGCUUCAGUGGCGCGAUAGCGCCAACGUCCUCAACCUCCAAUGCAUCCCACCACAUGAUGAUGGCUAAAGAGCCUUGGUUUUUUG", "note": "[U9G G39A G57A C114G G117A]", "polymerase ribozyme fitness (log ratio)": -6.32}, {"variant": "GACCAAUCGGCCCUCAGAGCUCGAGAACAUCUUCGGAUGCAGAGGAGGCAGUCUUCGGUGGCGCGAUAGCGCCAACGUCAUCAACCUCCAAUGCAUCCCACCACAUGAUUAUGCCUGAAGAGCCUUGGUUUUUUG", "note": "[U9G G52U C80A G110U]", "polymerase ribozyme fitness (log ratio)": -5.82}, {"variant": "GACCAAUCGGCCCACAGAGCUCGAGAACAUCUUCGGAUGCAGAGGAGGCAGCCUUCGGUGGCGCGAUAGCGCCAACGUCCUCAACCUCCAAUGCAUCCCACCACAUGAUGAUGCCUGAAGAGCCUUGGUUUUUUG", "note": "[U9G U14A G52C]", "polymerase ribozyme fitness (log ratio)": -0.345}, {"variant": "GACCAAUCGGCCCUCAGAGCUCGAGAACAUCUUCGGAUGCAGAGGAGGCAGGCUUCGGUGGCGCGAUAUCGCUAACGUCCUCAACCUCCAAUGCAUCCCACCACACGAUGAUGCCUGAAGAGCCUUGGUUUUUUG", "note": "[U9G G69U C73U U106C]", "polymerase ribozyme fitness (log ratio)": 0.373}, {"variant": "GACCAAUCGACCCGCAGAGCUCGAGAACAUCUUCGGAUGCAGAGGGGACAGGCUUCGGUGGCGCGGUAGUGCCAACGUCCUCAACCUCCAAUGCAUCCCACCACAUGAUGAUGCCUGAAGAGCCUUGGUUUUUUG", "note": "[U9G G10A U14G A46G G48A A66G C70U]", "polymerase ribozyme fitness (log ratio)": -4.44}, {"variant": "GACCAAUCGGCCCUCAGAGCUCGAGAACAUCUUCGGAGGCAGAGGAGGCAGGCUUCGGUGGCGCGAUAGCGCCAACGUCCUCAACCUCCAAUGCAUCCCACCACUUGAUGAUGCCUGAAGAGCCUUGGUUUUUUG", "note": "[U9G U38G A105U]", "polymerase ribozyme fitness (log ratio)": -2.64}, {"variant": "GACCAAUCGGCCCUCAGAGCACGAGAACAUCUUCGGAUGCAGAGGAGGCAGGCUUCGGUGGCGCGAUAGCGCCAACGUCCUCAACCUCCAAUGCAUCCCACCACAUGAUGAUGCCUGAAGAGCCUUGGUUUUUUG", "note": "[U9G U21A]", "polymerase ribozyme fitness (log ratio)": -0.191}, {"variant": "GACCAAUCGGCCCUCAGAGCUCGAGAACAUCUUCGGAGGCAGAGGAGGCAGGCUCCGGUGGCGCGAUAGCGCCAACGUCCUCAACCUCCAAUGCAUCCCACCACAUGAUGAUGCCUGAAGAGCCUUGGUUUUUUG", "note": "[U9G U38G U55C]", "polymerase ribozyme fitness (log ratio)": -0.21}, {"variant": "GACCAAUCGGCCCUCAGAGCUCGAGAACAUCUUCGGAUGCAGAGGAGGCAGGCUUCGGUUGUGCGAUAGCGGCAACGUCCUCAACCUCCAAUGCAUCCCACCACAUGAUGAUGCCUGAAGAGCCUUGGUUUUUUG", "note": "[U9G G60U C62U C72G]", "polymerase ribozyme fitness (log ratio)": -2.01}, {"variant": "GACCAAUCGGCCCUCAGAGCUCGAGAACAUCUUCUGAUGCAGAGGAGGCAGGCUUCGGUGGCGCGAUAGCGCCAACGUCCUCAACCUCCAAUGCAUCCCACCACAUGAUGAUGCCUGAAGAGCCUUGGUUUUUUG", "note": "[U9G G35U]", "polymerase ribozyme fitness (log ratio)": -4.99}]}]}
